Laboratory results reported in PMC6294510.
Like-named read-outs stand apart in the source and are kept apart here.

Assays:
[1] = target: ARTD2FL R153A (Homo sapiens, UniProt Q9UGN5 1-583, R153A); assay: SPR
[2] = target: ARTD2FL N127A (Homo sapiens, UniProt Q9UGN5 1-583, N127A); assay: SPR
[3] = target: ARTD2FL W151A (Homo sapiens, UniProt Q9UGN5 1-583, W151A); assay: SPR
[4] = target: ARTD2FL K183A (Homo sapiens, UniProt Q9UGN5 1-583, K183A); assay: SPR
[5] = target: ARTD2FL Y201F (Homo sapiens, UniProt Q9UGN5 1-583, Y201F); assay: SPR
Sequence of ARTD2FL Y201F (Q9UGN5 whole entry Y201F): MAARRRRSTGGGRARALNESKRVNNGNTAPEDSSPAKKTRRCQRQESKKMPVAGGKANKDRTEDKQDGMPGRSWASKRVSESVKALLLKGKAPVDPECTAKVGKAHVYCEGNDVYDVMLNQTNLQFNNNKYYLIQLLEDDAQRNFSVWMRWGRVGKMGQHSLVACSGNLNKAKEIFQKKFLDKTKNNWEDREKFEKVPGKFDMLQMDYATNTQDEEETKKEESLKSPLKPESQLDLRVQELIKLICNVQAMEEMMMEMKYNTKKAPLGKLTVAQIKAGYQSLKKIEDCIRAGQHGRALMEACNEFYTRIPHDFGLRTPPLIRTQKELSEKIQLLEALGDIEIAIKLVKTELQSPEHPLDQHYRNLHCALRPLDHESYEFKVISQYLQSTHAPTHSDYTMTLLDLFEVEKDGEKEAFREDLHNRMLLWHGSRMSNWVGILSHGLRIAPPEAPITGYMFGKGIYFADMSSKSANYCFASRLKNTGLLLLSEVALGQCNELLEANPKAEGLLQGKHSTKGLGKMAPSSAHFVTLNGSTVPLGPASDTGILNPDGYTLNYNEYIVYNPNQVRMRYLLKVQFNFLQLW

[6] = target: ARTD2FL K179A (Homo sapiens, UniProt Q9UGN5 1-583, K179A); assay: SPR
Sequence of ARTD2FL K179A (Q9UGN5 whole entry K179A): as the sequence (Q9UGN5 whole entry Y201F) above, with K179A, F201Y counted along it

[7] = target: T1, ARTD2WGR (Homo sapiens, UniProt Q9UGN5 90-218); assay: X-ray crystallography
T1 sequence (Q9UGN5 90-218): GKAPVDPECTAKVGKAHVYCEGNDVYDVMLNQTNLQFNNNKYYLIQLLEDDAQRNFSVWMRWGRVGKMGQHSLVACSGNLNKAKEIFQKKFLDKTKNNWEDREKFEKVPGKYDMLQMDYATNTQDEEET

[8] = target: T1, ARTD2WGR; assay: X-ray crystallography; remark: listed apart in the source
[9] = target: T1, ARTD2WGR; assay: X-ray crystallography; remark: listed apart in the source
[10] = target: T2, ARTD2FL WT (Homo sapiens, UniProt Q9UGN5 1-583); assay: ITC
T2 sequence (Q9UGN5 whole entry): as the sequence (Q9UGN5 whole entry Y201F) above, with F201Y counted along it

[11] = target: T3, ARTD2WGR+CAT (Homo sapiens, UniProt Q9UGN5 90-583); assay: SEC-SLS
T3 sequence (Q9UGN5 90-583): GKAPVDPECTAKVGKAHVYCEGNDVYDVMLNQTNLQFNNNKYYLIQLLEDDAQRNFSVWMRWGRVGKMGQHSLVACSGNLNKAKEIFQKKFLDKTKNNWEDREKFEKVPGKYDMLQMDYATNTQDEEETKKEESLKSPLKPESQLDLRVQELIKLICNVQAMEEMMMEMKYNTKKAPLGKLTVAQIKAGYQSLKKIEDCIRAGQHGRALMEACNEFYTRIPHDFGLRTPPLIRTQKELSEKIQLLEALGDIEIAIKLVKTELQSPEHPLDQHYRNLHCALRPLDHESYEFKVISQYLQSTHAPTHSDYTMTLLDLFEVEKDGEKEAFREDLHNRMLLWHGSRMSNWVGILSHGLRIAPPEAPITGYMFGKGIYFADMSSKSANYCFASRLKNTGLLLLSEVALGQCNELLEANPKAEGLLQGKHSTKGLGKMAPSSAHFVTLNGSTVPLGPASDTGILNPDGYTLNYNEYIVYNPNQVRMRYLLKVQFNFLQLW

[12] = target: T2, ARTD2FL WT; assay: SEC-SLS
[13] = target: T3, ARTD2WGR+CAT; assay: SEC-SLS; remark: listed apart in the source
[14] = target: T2, ARTD2FL WT; assay: EMSA

Sequence of ARTD2FL N127A (Q9UGN5 whole entry N127A): as the sequence (Q9UGN5 whole entry Y201F) above, with N127A, F201Y counted along it
Sequence of ARTD2FL K183A (Q9UGN5 whole entry K183A): as the sequence (Q9UGN5 whole entry Y201F) above, with K183A, F201Y counted along it
Sequence of ARTD2FL R153A (Q9UGN5 whole entry R153A): as the sequence (Q9UGN5 whole entry Y201F) above, with R153A, F201Y counted along it
Sequence of ARTD2FL W151A (Q9UGN5 whole entry W151A): as the sequence (Q9UGN5 whole entry Y201F) above, with W151A, F201Y counted along it

B1: DNA-12 (dsDNA)
DNA 1: GCAGCATGGCGGAGTTCACA
DNA 2: TGTGAACTCCGCCATGCTGC
modifications: 5'-phosphate on forward strand
Question: Does B1 bind [1]?
Answer: Result: no binding

Question: Does B1 bind [2]?
Answer: Result: no binding

Question: Does B1 bind [3]?
Answer: Result: no binding

Question: Does B1 bind [4]?
Answer: Result: no binding

Question: Does B1 bind [5]?
Answer: Result: no binding

Question: Does B1 bind [6]?
Answer: Result: no binding

B2: DNA-5 (dsDNA)
DNA 1: GCCTATAGGC
DNA 2: GCCTATAGGC
modifications: 5'-phosphate on both strands
Question: Does B2 bind [7]?
Answer: Result: binds

B3: DNA-6 (dsDNA)
DNA 1: GCCTAGCTACGTAGCTAGGC
DNA 2: GCCTAGCTACGTAGCTAGGC
Question: Does B3 bind [8]?
Answer: Result: binds

B4: DNA-9 (dsDNA)
DNA 1: CGGTCGCCTATAGGC
DNA 2: CGGTCGCCTATAGGC
modifications: 5'-phosphate on both strands
Question: Does B4 bind [9]?
Answer: Result: binds

Question: Which results are given for GGGTCTTTTGACCCTCGAGCTTTTGCTCGA (structured_DNA, 5'-phosphate) [DNA-1 nicked hairpin]?
Answer: binding result [10]: binds; binding result [11]: binds

Question: Does GGAAGTTCTTTTGAACTTCC (structured_DNA) [DNA-3 blunt hairpin] bind [10]?
Answer: Result: binds

B5: DNA-13 (dsDNA)
DNA 1: GACGCAACCCGGAGAACACA
DNA 2: TGTGTTCTCCGGGTTGCGTC
modifications: 5'-phosphate on forward strand
Question: Does B5 bind [12]?
Answer: Result: binds

Question: Does B5 bind [13]?
Answer: Result: binds

Question: Does GGAAGTTCTTTTGAACTTCCGCGAAGCTTTTGCTTCGC (structured_DNA, 5'-phosphate) [DNA-2 nicked dumbbell] bind [14]?
Answer: Result: binds
